From US20250188151A1, “C-JUN ANTAGONIST PEPTIDES” (The University of Bath, priority 2022, published 2025) come the findings set out here.

Data set [1] deals with T1, cJun bZIP (human, UniProt P05412 252-308, limits assumed).
T1 construct: Purified from a His-SUMO fusion with the tag cleaved off; also called c-Jun bZIP domain; 60 amino acid c-Jun bZIP construct
T1 chain: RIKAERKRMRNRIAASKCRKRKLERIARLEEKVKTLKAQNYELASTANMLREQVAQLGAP
In words: ITC.

Data set [2] has as its target T1, cJun bZIP. In words: cell-based or functional assay.
Data set [3] has as its target T2, cJun bZIP/TRE DNA interaction (transcriptional block of TRE-mDHFR) (Homo sapiens, UniProt P05412, S292Y).
T2 construct: expressed in transfected cells; host or cells: E. coli BL21 Gold carrying pES300d-TRE-mDHFR and pES230d-cJun bZIP
In words: Transcription Block Survival (TBS) assay: colony counting and growth competition in E. coli. It is filed as cell-based. The source says: Library Construction and TBS Assay: Library inserts were produced using PCR fill-in reactions from synthesised primers (Sigma) with degenerate codons at the desired positions to produce the correct residue options. The library was subcloned using SacI and AscI sites into the pET24a plasmid containing A-FosW. The primers used were cJun-Hinge-Lib-F: 5′-[…] TATGCC-3′ (SEQ ID NO: 49) and cJun-Hinge-Lib_R: 5′-[…] GTTC-3′ (SEQ ID NO: 50). The library DNA was transformed into NEB 10-beta electrocompetent E. coli cells. The following equation was utilised to determine library coverage by the number of single colonies: E=100×(1−1/n)^m where E is the percentage of the library missing, m is the number of colonies collected and n is the library size. […] Library DNA quality was assessed by sequencing both the DNA pool and a number of single colonies to show degenerate codons in the correct positions in the pool and to show a diversity of library members from single colonies. The pool of library DNA was transformed into BL21 Gold cells already containing pES300d-TRE-mDHFR and pES230d-cJun bZIP.
Selective pressure is applied by growing the bacteria in M9 minimal media with TMP (2-4 μM) alongside ampicillin, kanamycin and chloramphenicol to maintain the required plasmids, and IPTG (1 mM) to induce protein expression. The library transformants were first plated out onto selective agar plates (2 μM TMP) and grown at 37° C. for 72-96 h. Optimisation experiments (FIG. 5) indicate that 4 μM TMP is optimum for selection however a lower stringency is used initially before selection is increased in later steps. Colonies from this first round of selection were pooled and serially grown in liquid culture at starting OD600 of 0.05 and grown at 37° C. with shaking at 200 rpm until the OD600 reached 0.6. TMP concentration was 2 μM in the first liquid culture passage before it was increased to the optimum 4 μM in subsequent passages. […] At each passage step, a sample of the culture was plated on LB agar (supplemented with antibiotics to maintain plasmids) to select and sequence individual colonies, and a DNA pool was also sequenced. This allows the occurrence of library members to be monitored as winner sequences are selected for. Assay Validation experiments utilised a modified assay methodology whereby overnight cultures from glycerol stocks of the Control Strains (Table 2) were diluted to OD600=0.5 and 50 μL was plated on a selective M9 minimal medium agar plate.
Transcription block survival (TBS) is an intracellular assay that utilises cell survival as a readout. […] This enzyme is absolutely essential for survival since it is required for the production of purines needed for DNA and amino acid synthesis. […]. We produced a mDHFR gene (FIGS. 2 and 3) by rational design to introduce 15 TRE sites into the coding DNA sequence to allow a robust cJun transcriptional block whilst minimising alteration to the expressed protein (TRE-mDHFR). In particular, the resulting TRE-mDHFR construct was produced via two silent and thirteen conservative mutations. […] The accessible surface areas of all other amino acid residues were calculated using the ‘Accessible Surface Area and Accessibility Calculation for Protein’ tool (http://cib.cf.ocha.ac.jp/bitool/ASA/). […]

For data set [4], the target named is T3, cFos bZIP domain (Homo sapiens, UniProt P01100, S177Y).
T3 construct: His-SUMO (N, cleaved yes); made in house; host or cells: E. coli
T3 sequence (P01100 with tags, fused parts or gaps S177Y): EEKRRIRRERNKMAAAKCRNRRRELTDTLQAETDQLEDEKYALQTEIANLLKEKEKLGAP
Briefly: CD spectra/thermal denaturation with cFos bZIP (off-target). The note with it: CD spectra and thermal denaturation. It is filed as binding. The method, then: (FIG. 11D). Although this represented a negligible 1.3° C. increase in heterodimer Tm, there was crucially a much larger ΔTm for HingeW/cJun relative to the component peptide denaturation profiles than for A-FosW/cJun. The low thermal stability of the HingeW homodimer results in no observable lower baseline prior to the transition such that the Tm for this component, and thus the average, cannot be determined. However, this ΔTm can be estimated to be ˜40° C., compared to 27.5° C. for A-FosW/cJun. The TBS screen has therefore led to an optimised reduction in homodimersation more so than increased heterodimerisation with the target. This ensures that more antagonist is available as free monomer in solution and therefore in a target-dimerisation competent state. Another difference between the two denaturation profiles is the presence of a double transition for the A-FosW/cJun heterodimer, with a smaller initial transition occurring at ˜30° C.

For data set [5], the system named is TRE DNA. In words: CD control: peptide with TRE DNA. In kind it is binding.
Procedure: Circular Dichroism (CD): An Applied Photophysics Chirascan was used for CD measurements, with a 200 μL sample in a 1 mm path length CD cell. Protein/DNA samples were suspended in 150 mM potassium phosphate, 150 mM potassium fluoride and 5 mM TCEP at pH 7.4 and were equilibrated for 30 minutes before measurement. […] These scans were averaged and converted to molar residue ellipticities (MRE).
In data set [6] the target is T1, cJun bZIP.
Data set [7] deals with T1, cJun bZIP.
Data set [8] has as its target T4, cFos bZIP (human, UniProt P01100 137-193).
T4 construct: Purified from a His-SUMO fusion with the tag cleaved off; also called cFos bZIP domain
T4 chain: T3 sequence (P01100 with tags, fused parts or gaps S177Y)
Briefly: CD spectra 190-260 nm, equimolar mixture compared with the average of the 10 µM component spectra.

Data set [9] has as its target T1, cJun bZIP. Briefly: ITC (PEAQ-ITC), peptide injected into cJun, one site model; Table 7 ITC, run at a lower temperature than the earlier 1/cJun ITC measurement.

B1: HingeW (peptide)
peptide: MASLEQRAEELARENEELEKEAEELVVEEDVLEEEIEQLEERNYALRKEIEDLQKQLEKLGAPHHHHHH
notes: Recombinant, capped (MAS at the N-terminus, GAP at the C-terminus) and C-terminally 6xHis-tagged, 69 amino acids; also called peptide 1
Turning to B1, the “fold increase in binding affinity against A-FosW” value in data set [1] amounted to 6 fold. Further, in data set [2], the “IC50, EMSA of free TRE DNA band” value is 9.6 µM; the “TBS assay colony numbers relative to A-FosW” value was 10%; the “TBS assay colony numbers relative to TRE-mDHFR alone” value came out at 66%. In addition, the “direct competition in liquid culture, sequence observed by DNA sequencing” value in data set [3] (equal numbers of TBS cells with A-FosW or HingeW, after three passages) is listed as “only HingeW was observed”. Besides, in [3] (vs transcriptionally blocked cells (TRE-mDHFR + cJun bZIP)), the “effect on TRE-mDHFR transcriptional block / colony numbers” value is given as “restore cell survival”. For the same molecule, in data set [4], the “interaction with cFos bZIP” value is recorded as “no interaction”. Besides, in [5], the “interaction with TRE DNA” value is on record as “no interaction”. Also, the “Tm (° C.) (CD)” value in data set [6] was determined as 71.2 ° C. Besides, the “ΔTm from component average (CD)” value in data set [7] is around 40 ° C. Besides, the binding result in [8] was “no binding (tested: 5 µM of each peptide)”. Besides, in data set [9], the Kd stood at 0.00021 µM.
